Measurements from paper doi:10.1101/2023.09.07.556688 (bioRxiv, 2023).

Legend:
cryo-EM structure = biological target: the molecule itself; assay: cryo-EM structure
negative-stain EM = biological target: the molecule itself; assay: negative-stain EM

| Protein | stoichiometry N (cryo-EM structure) | binding result (negative-stain EM) |
| --- | --- | --- |
| Arabidopsis thaliana Delta-1-pyrroline-5-carboxylate synthase 2 (atP5CS2), wild type (enzyme, UniProt P54888 1-726, looked up) MTEIDRSRAFAKDVKRIVVKVGTAVVTGKGGRLALGRLGAICEQLAELNSDGFEVILVSSGAVGLGRQRLRYRQLVNSSFADLQKPQMELDGKACAGVGQSSLMAYYETMFDQLDVTVAQMLVTDSSFRDKDFRKQLSETVKAMLRMRVIPVFNENDAISTRRAPYKDSTGIFWDNDSLAALLSLELKADLLILLSDVEGLYTGPPSDSTSKLIHTFIKEKHQDEITFGEKSKLGRGGMTAKVKAAVNAAYGGVPVIITSGYAAENISKVLRGLRVGTLFHQDAHLWAPVVDTTSRDMAVAARESSRKLQALSSEDRKQILHDIANALEVNEKTIKAENDLDVAAAQEAGYEESLVARLVMKPGKISSLAASVRQLAEMEDPIGRVLKKTQVADDLILEKTSSPIGVLLIVFESRPDALVQIASLAIRSGNGLLLKGGKEARRSNAILHKVITDAIPETVGGKLIGLVTSREEIPDLLKLDDVIDLVIPRGSNKLVSQIKNSTKIPVLGHADGICHVYVDKSGKLDMAKRIVSDAKLDYPAACNAMETLLVHKDLEQNGFLDDLIYVLQTKGVTLYGGPRASAKLNIPETKSFHHEYSSKACTVEIVEDVYGAIDHIHQHGSAHTDCIVTEDSEVAEIFLRQVDSAAVFHNASTRFSDGFRFGLGAEVGISTSRIHARGPVGVEGLLTTRWIMRGKGQVVDGDNGIVYTHKDLPVLQRTEAVENGI | 4 |  |
| truncated atP5CS2 protein consisting of residues 1-290 (atP5CS2-GK) (domain or fragment, Arabidopsis thaliana, UniProt P54888 1-290, looked up) MTEIDRSRAFAKDVKRIVVKVGTAVVTGKGGRLALGRLGAICEQLAELNSDGFEVILVSSGAVGLGRQRLRYRQLVNSSFADLQKPQMELDGKACAGVGQSSLMAYYETMFDQLDVTVAQMLVTDSSFRDKDFRKQLSETVKAMLRMRVIPVFNENDAISTRRAPYKDSTGIFWDNDSLAALLSLELKADLLILLSDVEGLYTGPPSDSTSKLIHTFIKEKHQDEITFGEKSKLGRGGMTAKVKAAVNAAYGGVPVIITSGYAAENISKVLRGLRVGTLFHQDAHLWAPV |  | binds |
